Where a chain is given by its changes, count along the chain named. Names and notes keep the numbering of the source. Like-named read-outs stand apart in the source and are kept apart here.
B1: b4Gal-T1Y289L: single mutant beta4Gal-T1, Tyr289 to Leu (bovine numbering), enlarged binding pocket with GalNAc-T activity (protein, UniProt P08037 1-402, looked up, variant Y289L)
chain: MKFREPLLGGSAAMPGASLQRACRLLVAVCALHLGVTLVYYLAGRDLRRLPQLVGVHPPLQGSSHGAAAIGQPSGELRLRGVAPPPPLQNSSKPRSRAPSNLDAYSHPGPGPGPGSNLTSAPVPSTTTRSLTACPEESPLLVGPMLIEFNIPVDLKLVEQQNPKVKLGGRYTPMDCISPHKVAIIIPFRNRQEHLKYWLYYLHPILQRQQLDYGIYVINQAGESMFNRAKLLNVGFKEALKDYDYNCFVFSDVDLIPMNDHNTYRCFSQPRHISVAMDKFGFSLPYVQLFGGVSALSKQQFLSINGFPNNYWGWGGEDDDIYNRLAFRGMSVSRPNAVIGKCRMIRHSRDKKNEPNPQRFDRIAHTKETMLSDGLNSLTYMVLEVQRYPLYTKITVDIGTPS
B2: b4Gal-T1-M340H-Y285L: double mutant human beta 1,4-galactosyltransferase I, Tyr285Leu and Met340His, transfers GalNAc or modified galactose with magnesium (protein, UniProt P15291 1-398, looked up, variant M340H Y285L)
chain: MRLREPLLSGSAAMPGASLQRACRLLVAVCALHLGVTLVYYLAGRDLSRLPQLVGVSTPLQGGSNSAAAIGQSSGELRTGGARPPPPLGASSQPRPGGDSSPVVDSGPGPASNLTSVPVPHTTALSLPACPEESPLLVGPMLIEFNMPVDLELVAKQNPNVKMGGRYAPRDCVSPHKVAIIIPFRNRQEHLKYWLYYLHPVLQRQQLDYGIYVINQAGDTIFNRAKLLNVGFQEALKDYDYTCFVFSDVDLIPMNDHNAYRCFSQPRHISVAMDKFGFSLPYVQLFGGVSALSKQQFLTINGFPNNYWGWGGEDDDIFNRLVFRGMSISRPNAVVGRCRHIRHSRDKKNEPNPQRFDRIAHTKETMLSDGLNSLTYQVLDVQRYPLYTQITVDIGTPS
B3: b4Gal-T1-M340H: single mutant human beta4Gal-T1, Met340 to His, from which the double mutant was constructed (protein, UniProt P15291 1-398, looked up, variant M340H)
chain: B2 chain with L285Y
B4: b4Gal-T1 Y285L: single mutant human beta4Gal-T1, Tyr285 to Leu, from which the double mutant was constructed (protein, UniProt P15291 1-398, looked up, variant Y285L)
chain: B2 chain with H340M

Experiments:
[1] = Transfer of GalNAc or 2-keto-galactose to heptasaccharide tetrapeptide, MALDI mass spectra (FIG. 1); format: biochemical
Procedure: Major peaks are annotated with the carbohydrate structure shown in the symbols for monosaccharides, according to the nomenclature adopted by the consortium for functional glycomics, (on the world wide web at functionalglycomics.org/static/consortium/). GlcNAc (squares), mannose (spheres).
The experiments shown in FIG. 1 were performed with the double mutant, b4Gal-T1_M340H_Y285L, which was constructed from the single mutants, b4Gal-T1_M340H and b4Gal-T1_Y285L. The b4Gal-T1-M340H single mutant requires Mg2+ for the transfer reaction, while the b4Gal-T1 Y285L single mutant requires Mn2+ for the transfer reaction. In FIGS. 1, (A), (B) and (C) show the MALDI mass spectra of glycans after the transfer of GalNAc (shown in B) or 2-keto-galactose (shown in C) to the sugar acceptor, heptasaccharide tetrapeptide (A), Arg-[GlcNAcβ1,2-Manα-1,6-(GlcNAcβ1,2-Manα1,3)-Manβ1,4-GlcNAcβ1,4-GlcNAcβ]-Asn-Glu-Gly, by the double mutant enzyme, b4Gal-T1M340H_Y285L. In FIG. 1, major peaks are annotated with the carbohydrate structure shown in the symbols for monosaccharides, according to the nomenclature adopted by the consortium for functional glycomics (publicly available on the world wide web at functional glycomics.org/static/consortium/).

[2] = Ramakrishnan et al. 2002, 2004, cited from earlier work
[3] = Gal-T and GalNAc-T enzyme assay, specific activities of the catalytic domain (FIG. 2); format: biochemical; conditions: in the presence of magnesium; saturating substrates, 500 μM UDP-galactose or UDP-GalNAc, β-benzyl-GlcNAc 25 mM
Procedure: FIG. 2 is a graph showing specific activities of the catalytic domain of the human beta 4Gal-T1-M340H-Y285L. Reactions were performed under saturating conditions of all substrates. In these reactions the concentrations for the donors UDP-galactose or UDP-GalNAc was 500 μM and the acceptor β-benzyl-GlcNAc was at 25 mM.
The reactions were performed under saturating conditions of all substrates. […] This is in contrast to the wild type, which is not active (not able to transfer sugar) in the presence of magnesium.
Gal-T and GalNAc T enzyme assays are easily performed according to methods described in the art, for example US Published Application 20060084162. Protein concentrations are measured using the Bio-Rad protein assay kit, based on the method of Bradford and further verified on SDS gel. An in vitro assay procedure for the Gal-T1 has been reported previously (Ramakrishnan et al., J. Biol. Chem., 270, […] (2001)). The activities were measured using UDP-Gal or UDP-GalNAc as sugar nucleotide donors, and GlcNAc and Glc as the acceptor sugars. […] The column was washed successfully with 300, 400, and 500 µl of water, and the column flow-through was diluted with Biosafe scintillation fluid; radioactivity was measured with a Beckman counter. […]

Row | activity (able to transfer sugar) of the catalytic domain [3] | Molecule | metal ion required for the transfer reaction (GalNAc or a modified sugar) [1] | beta 4GalNAc-T activity compared with beta 4Gal-T activity ([2]; listed as beta 4Gal-T1-Y289L) | beta 4GalNAc-T activity compared with beta 4Gal-T activity ([2]; listed as beta4Gal-T1-Y289L) | transfer of GalNAc or a modified sugar (2-keto-galactose) to the sugar acceptor ([1]; in the presence of Mg2+, acceptor heptasaccharide tetrapeptide)
1 | – | B1 | require the presence of Mn2+ | exhibits both beta 4Gal-T and beta 4GalNAc-T activities | as efficient as its beta-1,4-galactosyltransferase (beta 4Gal-T) activity | –
2 | is active | B2 | – | – | – | transfer of GalNAc or a modified sugar
3 | – | B3 | requires Mg2+ | – | – | –
4 | – | B4 | requires Mn2+ | – | – | –

Reference: patent publication US8512991B2, “Beta 1,4-galactosyltransferases with altered donor and acceptor specificities, compositions and methods of use” (The United States of America, as represented by the …, priority 2007, dated 2013)
